From article PMC9355564, “A network of cytosolic (co)chaperones promotes the biogenesis of mitochondrial signal-anchored outer membrane proteins” (eLife, 2022)
Ends that are not written are not given here.

T1: GST-Tom20(35-183) (S. cerevisiae, UniProt P35180 35-183)
T1 construct: also called cytosolic domain of Tom20; source: expressed and purified as described earlier (Papić et al., 2013); not shown: GST, N-terminal, kept
T1 sequence (looked up): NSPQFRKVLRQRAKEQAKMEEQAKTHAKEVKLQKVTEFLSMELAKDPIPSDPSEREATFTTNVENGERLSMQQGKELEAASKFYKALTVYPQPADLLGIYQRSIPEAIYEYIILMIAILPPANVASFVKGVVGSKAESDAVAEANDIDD

T2: recombinant Sis1 (S. cerevisiae, UniProt P25294 1-352)
T2 construct: Sis1, yeast Hsp40 co-chaperone; also called Hsp40 co-chaperone Sis1; source: recombinantly expressed and purified
T2 sequence (looked up): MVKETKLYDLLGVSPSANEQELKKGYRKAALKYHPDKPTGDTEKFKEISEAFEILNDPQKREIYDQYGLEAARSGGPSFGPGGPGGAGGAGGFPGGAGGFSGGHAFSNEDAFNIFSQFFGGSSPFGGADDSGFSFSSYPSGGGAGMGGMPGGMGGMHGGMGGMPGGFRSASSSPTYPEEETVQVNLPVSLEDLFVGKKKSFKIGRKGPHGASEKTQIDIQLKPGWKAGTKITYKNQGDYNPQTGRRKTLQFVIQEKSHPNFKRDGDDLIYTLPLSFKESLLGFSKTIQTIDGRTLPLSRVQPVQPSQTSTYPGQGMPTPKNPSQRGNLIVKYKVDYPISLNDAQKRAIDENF

B1: Mcr1-3HA (full length) (natural protein, S. cerevisiae, UniProt P36060 1-302, looked up)
chain: MFSRLSRSHSKALPIALGTVAIAAATAFYFANRNQHSFVFNESNKVFKGDDKWIDLPISKIEEESHDTRRFTFKLPTEDSEMGLVLASALFAKFVTPKGSNVVRPYTPVSDLSQKGHFQLVVKHYEGGKMTSHLFGLKPNDTVSFKGPIMKWKWQPNQFKSITLLGAGTGINPLYQLAHHIVENPNDKTKVNLLYGNKTPQDILLRKELDALKEKYPDKFNVTYFVDDKQDDQDFDGEISFISKDFIQEHVPGPKESTHLFVCGPPPFMNAYSGEKKSPKDQGELIGILNNLGYSKDQVFKF
notes: Mcr1, S. cerevisiae, signal-anchored mitochondrial outer membrane protein (Mcr1mom is its outer membrane isoform); also called Mcr1-FL; yk-Mcr1-3HA; source: in vitro translated in yeast extract; not shown: 3HA, C-terminal, kept
B2: GST-Tom70(46-617) (domain or fragment, S. cerevisiae, UniProt P07213 46-617, looked up)
chain: KDEKKDTKDSQKETEGAKKSTAPSNPPIYPVSSNGEPDFSNKANFTAEEKDKYALALKDKGNQFFRNKKYDDAIKYYNWALELKEDPVFYSNLSACYVSVGDLKKVVEMSTKALELKPDYSKVLLRRASANEGLGKFADAMFDLSVLSLNGDFNDASIEPMLERNLNKQAMSKLKEKFGDIDTATATPTELSTQPAKERKDKQENLPSVTSMASFFGIFKPELTFANYDESNEADKELMNGLSNLYKRSPESYDKADESFTKAARLFEEQLDKNNEDEKLKEKLAISLEHTGIFKFLKNDPLGAHEDIKKAIELFPRVNSYIYMALIMADRNDSTEYYNYFDKALKLDSNNSSVYYHRGQMNFILQNYDQAGKDFDKAKELDPENIFPYIQLACLAYRENKFDDCETLFSEAKRKFPEAPEVPNFFAEILTDKNDFDKALKQYDLAIELENKLDGIYVGIAPLVGKATLLTRNPTVENFIEATNLLEKASKLDPRSEQAKIGLAQMKLQQEDIDEAITLFEESADLARTMEEKLQAITFAEAAKVQQRIRSDPVLAKKIQETLAKLREQGLM
notes: Tom70, cytosolic domain, residues 46-617; also called cytosolic domain of Tom70; source: expressed and purified as described earlier (Papić et al., 2013); not shown: GST, N-terminal, kept
B3: TAMRA-labeled Tom70 peptide, residues 1-32 (peptide, UniProt P07213 1-32, looked up)
peptide: MKSFITRNKTAILATVAATGTAIGAYYYYNQL
modifications: also: TAMRA label, position not given here
notes: Tom70, residues 1-32, contain the transmembrane segment; synthesis as in Jores et al., 2016; also called Tom70(TMS); TMS-labelled peptide of Tom70; source: synthetic peptide
B4: TAMRA-labeled Mcr1 peptide, residues 1-39 (peptide, UniProt P36060 1-39, looked up)
peptide: MFSRLSRSHSKALPIALGTVAIAAATAFYFANRNQHSFV
modifications: also: TAMRA label, position not given here
notes: Mcr1, residues 1-39, contain the transmembrane segment; synthesis as in Jores et al., 2016; also called Mcr1(TMS); Mcr1-TMS peptide; source: synthetic peptide

What was measured:
GST-Tom20(35-183) = biological target: T1, GST-Tom20(35-183); experiment: pull-down; purified GST, GST-Tom20 or GST-Tom70 on glutathione sepharose beads blocked with 5% BSA, mixed with cleared in vitro translation reactions (yeast extract) of HA-tagged proteins; ATP added every 30 min; 20 mM Hepes, 100 mM NaCl, 1 mM MgCl2, pH 7.25; anti-HA blot; conditions: one partner purified
Ssa1-Mcr1(TMS) complex = biological target: T3, Ssa1-Mcr1(TMS) complex (S. cerevisiae, UniProt P10591 1-642; P36060 1-39, Tetramethylrhodamine (TAMRA), position not stated); experiment: fluorescence polarisation; fluorescence anisotropy, 2 µM TAMRA-labeled peptide, 30 °C; single additions of 10 µM Ssa1, 30 µM Sis1, 10 µM GST-Tom70, GST, BSA or 1 mM ATP alone or in the indicated order; conditions: both partners purified
T3 construct: Ssa1, as m37; Mcr1 residues 1-39, as m36; also called substrate-chaperone complex; Ssa1/substrate complex; source: formed beforehand by adding 10 µM recombinant Ssa1 to 2 µM TAMRA-labeled Mcr1 peptide

recombinant Ssa1 = biological target: T4, recombinant Ssa1 (S. cerevisiae, UniProt P10591 1-642); experiment: fluorescence polarisation; fluorescence anisotropy titration, 2 µM TAMRA-labeled peptide with increasing concentrations of Ssa1 or Sis1, 30 °C; Kd from hyperbolic regression of the difference in anisotropy; conditions: both partners purified
T4 construct: Ssa1, yeast cytosolic Hsp70 chaperone; also called Hsp70 Ssa1; source: recombinantly expressed and purified

recombinant Sis1 = biological target: T2, recombinant Sis1; experiment: as above; conditions: both partners purified
GST-Tom70(46-617) = biological target: B2; experiment: fluorescence polarisation; fluorescence anisotropy, 2 µM TAMRA-labeled peptide, 30 °C; single additions of 10 µM Ssa1, 30 µM Sis1, 10 µM GST-Tom70, GST, BSA or 1 mM ATP alone or in the indicated order; conditions: both partners purified

T4 sequence (P10591 whole entry): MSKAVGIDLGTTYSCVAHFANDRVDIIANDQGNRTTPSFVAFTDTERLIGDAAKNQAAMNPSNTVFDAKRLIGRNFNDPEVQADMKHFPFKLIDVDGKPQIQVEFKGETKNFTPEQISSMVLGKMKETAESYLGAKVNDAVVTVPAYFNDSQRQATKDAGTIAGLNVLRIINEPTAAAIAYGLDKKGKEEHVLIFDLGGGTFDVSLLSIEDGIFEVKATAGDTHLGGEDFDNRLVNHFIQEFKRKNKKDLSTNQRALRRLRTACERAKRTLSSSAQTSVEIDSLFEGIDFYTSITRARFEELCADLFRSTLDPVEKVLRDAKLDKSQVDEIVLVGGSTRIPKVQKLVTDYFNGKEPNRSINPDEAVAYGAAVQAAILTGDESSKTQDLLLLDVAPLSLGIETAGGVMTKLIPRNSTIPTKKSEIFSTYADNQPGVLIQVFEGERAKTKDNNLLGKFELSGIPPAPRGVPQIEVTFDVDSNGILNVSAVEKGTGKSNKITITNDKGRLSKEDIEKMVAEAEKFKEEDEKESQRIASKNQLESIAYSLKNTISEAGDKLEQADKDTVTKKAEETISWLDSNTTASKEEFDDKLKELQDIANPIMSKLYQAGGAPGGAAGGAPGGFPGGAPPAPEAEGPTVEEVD
T3 sequence (P10591 whole entry, the tested form may be a part, one chain of several): as the sequence (P10591 whole entry) above

Row | fold binding to GST-Tom20 relative to GST-Tom70 (after normalising to GST) (GST-Tom20(35-183)) [fold] | binding result (Ssa1-Mcr1(TMS) complex) | Kd (recombinant Ssa1) [µM] | Kd (recombinant Sis1) [µM] | binding result (GST-Tom70(46-617)) | Binder
1 | 4 | – | – | – | – | B1
2 | – | binds | – | – | – | B2
3 | – | – | 2.42 | 18.3 | – | B3
4 | – | – | 3.27 | 25.8 | binds | B4
